{
  "source": "patent US20230340151A1",
  "about": "(Pfizer, published 2023)",
  "assay_in_all_cases": "peptide DELFIA ELISA;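 further: epitope mapping using overlapping 20-mer GUCY2C peptides covering residues 1-440, extracellular into transmembrane domain, coated at 20 µg/ml as target antigen and probed with antibodies or GUCY2C-CD3 bispecifics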",
  "key": {"GUCY2C_ECD Peptide 74": {"target": "T1, GUCY2C_ECD Peptide 74 (human)", "T1 peptide": "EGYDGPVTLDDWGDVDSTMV", "method": "(§1) Arrays were reconstituted with acetonitrile to 100 μg/ml and were then further diluted to 20 μg/ml with sodium carbonate/bicarbonate buffer. Purified antibodies or GUCY2c-CD3 bispecifics were then tested by Delfia ELISA for binding to the different peptides using Delfia ELISA methods previously discussed, with diluted peptides used as the target antigen."}, "GUCY2C_ECD Peptide 9": {"target": "T2, GUCY2C_ECD Peptide 9 (human)", "T2 peptide": "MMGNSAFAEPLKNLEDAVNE", "method": "as §1"}, "GUCY2C_ECD Peptide 24": {"target": "T3, GUCY2C_ECD Peptide 24 (human)", "T3 peptide": "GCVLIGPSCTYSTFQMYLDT", "method": "as §1"}, "GUCY2C_ECD Peptide 21": {"target": "T4, GUCY2C_ECD Peptide 21 (human)", "T4 peptide": "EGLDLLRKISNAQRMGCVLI", "method": "as §1"}, "GUCY2C_ECD Peptide 3": {"target": "T5, GUCY2C_ECD Peptide 3 (human)", "T5 peptide": "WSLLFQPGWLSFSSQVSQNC", "method": "as §1"}, "GUCY2C_ECD Peptide 38": {"target": "T6, GUCY2C_ECD Peptide 38 (human)", "T6 peptide": "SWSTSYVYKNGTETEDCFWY", "method": "as §1"}, "GUCY2C_ECD Peptide 18": {"target": "T7, GUCY2C_ECD Peptide 18 (human)", "T7 peptide": "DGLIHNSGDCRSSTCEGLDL", "method": "as §1"}, "GUCY2C_ECD Peptide 81": {"target": "T8, GUCY2C_ECD Peptide 81 (human)", "T8 peptide": "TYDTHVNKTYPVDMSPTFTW", "method": "as §1"}, "GUCY2C_ECD Peptide 88": {"target": "T9, GUCY2C_ECD Peptide 88 (human)", "T9 peptide": "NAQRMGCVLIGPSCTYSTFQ", "method": "as §1"}, "GUCY2C_ECD Peptide 31": {"target": "T10, GUCY2C_ECD Peptide 31 (human)", "T10 peptide": "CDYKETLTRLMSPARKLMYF", "method": "as §1"}, "GUCY2C_ECD Peptide 85": {"target": "T11, GUCY2C_ECD Peptide 85 (human)", "T11 peptide": "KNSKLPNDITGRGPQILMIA", "method": "as §1"}, "GUCY2C_ECD Peptide 76": {"target": "T12, GUCY2C_ECD Peptide 76 (human)", "T12 peptide": "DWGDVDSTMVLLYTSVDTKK", "method": "as §1"}, "GUCY2C_ECD Peptide 60": {"target": "T13, GUCY2C_ECD Peptide 60 (human)", "T13 peptide": "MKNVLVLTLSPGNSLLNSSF", "method": "as §1"}, "GUCY2C_ECD Peptide 56": {"target": "T14, GUCY2C_ECD Peptide 56 (human)", "T14 peptide": "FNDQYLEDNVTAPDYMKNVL", "method": "as §1"}, "GUCY2C_ECD Peptide 71": {"target": "T15, GUCY2C_ECD Peptide 71 (human)", "T15 peptide": "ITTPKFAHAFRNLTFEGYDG", "method": "as §1"}, "GUCY2C_ECD Peptide 23": {"target": "T16, GUCY2C_ECD Peptide 23 (human)", "T16 peptide": "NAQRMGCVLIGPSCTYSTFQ", "method": "as §1"}, "GUCY2C_ECD Peptide 30": {"target": "T17, GUCY2C_ECD Peptide 30 (human)", "T17 peptide": "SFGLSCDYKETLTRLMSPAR", "method": "as §1"}, "GUCY2C_ECD Peptide 84": {"target": "T18, GUCY2C_ECD Peptide 84 (human)", "T18 peptide": "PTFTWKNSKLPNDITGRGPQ", "method": "as §1"}, "GUCY2C_ECD Peptide 34": {"target": "T19, GUCY2C_ECD Peptide 34 (human)", "T19 peptide": "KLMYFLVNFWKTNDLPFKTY", "method": "as §1"}, "GUCY2C_ECD Peptide 26": {"target": "T20, GUCY2C_ECD Peptide 26 (human)", "T20 peptide": "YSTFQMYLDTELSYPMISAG", "method": "as §1"}, "GUCY2C_ECD Peptide 54": {"target": "T21, GUCY2C_ECD Peptide 54 (human)", "T21 peptide": "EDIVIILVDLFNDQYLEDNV", "method": "as §1"}, "GUCY2C_ECD Peptide 8": {"target": "T22, GUCY2C_ECD Peptide 8 (human)", "T22 peptide": "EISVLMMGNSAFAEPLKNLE", "method": "as §1"}, "GUCY2C_ECD Peptide 61": {"target": "T23, GUCY2C_ECD Peptide 61 (human)", "T23 peptide": "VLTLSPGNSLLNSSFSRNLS", "method": "as §1"}, "GUCY2C_ECD Peptide 4": {"target": "T24, GUCY2C_ECD Peptide 4 (human)", "T24 peptide": "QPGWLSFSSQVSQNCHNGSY", "method": "as §1"}, "GUCY2C_ECD Peptide 49": {"target": "T25, GUCY2C_ECD Peptide 49 (human)", "T25 peptide": "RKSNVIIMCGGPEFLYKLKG", "method": "as §1"}, "GUCY2C_ECD Peptide 48": {"target": "T26, GUCY2C_ECD Peptide 48 (human)", "T26 peptide": "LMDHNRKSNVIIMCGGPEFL", "method": "as §1"}, "GUCY2C_ECD Peptide 66": {"target": "T27, GUCY2C_ECD Peptide 66 (human)", "T27 peptide": "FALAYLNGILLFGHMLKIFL", "method": "as §1"}, "GUCY2C_ECD Peptide 89": {"target": "T28, GUCY2C_ECD Peptide 89 (human)", "T28 peptide": "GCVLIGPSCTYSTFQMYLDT", "method": "as §1"}, "GUCY2C_ECD Peptide 33": {"target": "T29, GUCY2C_ECD Peptide 33 (human)", "T29 peptide": "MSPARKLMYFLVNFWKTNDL", "method": "as §1"}, "GUCY2C_ECD Peptide 73": {"target": "T30, GUCY2C_ECD Peptide 73 (human)", "T30 peptide": "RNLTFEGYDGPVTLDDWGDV", "method": "as §1"}, "GUCY2C_ECD Peptide 69": {"target": "T31, GUCY2C_ECD Peptide 69 (human)", "T31 peptide": "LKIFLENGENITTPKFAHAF", "method": "as §1"}, "GUCY2C_ECD Peptide 5": {"target": "T32, GUCY2C_ECD Peptide 5 (human)", "T32 peptide": "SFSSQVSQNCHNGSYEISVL", "method": "as §1"}, "GUCY2C_ECD Peptide 67": {"target": "T33, GUCY2C_ECD Peptide 67 (human)", "T33 peptide": "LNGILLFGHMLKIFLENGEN", "method": "as §1"}, "GUCY2C_ECD Peptide 28": {"target": "T34, GUCY2C_ECD Peptide 28 (human)", "T34 peptide": "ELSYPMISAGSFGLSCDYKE", "method": "as §1"}, "GUCY2C_ECD Peptide 87": {"target": "T35, GUCY2C_ECD Peptide 87 (human)", "T35 peptide": "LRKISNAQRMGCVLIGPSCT", "method": "as §1"}, "GUCY2C_ECD Peptide 80": {"target": "T36, GUCY2C_ECD Peptide 80 (human)", "T36 peptide": "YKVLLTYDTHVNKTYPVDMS", "method": "as §1"}, "GUCY2C_ECD Peptide 37": {"target": "T37, GUCY2C_ECD Peptide 37 (human)", "T37 peptide": "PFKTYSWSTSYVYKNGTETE", "method": "as §1"}},
  "data": [
    {"binder": "GUCY2C-1608 (bispecific antibody, also called GUCY2c CD3 bispecific) chain 1: DIQLTQSPSSLSASVGDRVTITCRASESVDYYGSSLLQWYQQKPGKAPKLLIYAASKLASGVPSRFSGSGSGTDFTLTISSLQPEDFATYYCQQTRKAYTFGQGTKLEIKGGGSGGGGEVQLVESGGGLVQPGGSLRLSCAASGFTFSDYYMTWVRQAPGKGLEWVAFIRNQARGYTSDHNPSVKGRFTISRDNAKNSLYLQMNSLRAEDTAVYYCARDRPSYYVLDYWGQGTTVTVSSGCPPCPAPEAAGAPSVFLFPPKPKDTLMISRTPEVTCVVVDVSHEDPEVKFNWYVDGVEVHNAKTKPREEQYNSTYRVVSVLTVLHQDWLNGKEYKCKVSNKALPAPIEKTISKAKGQPREPQVCTLPPSREEMTKNQVSLWCLVKGFYPSDIAVEWESNGQPENNYKTTPPVLDSDGSFFLYSKLTVDKSRWQQGNVFSCSVMHEALHNHYTQKSLSLSPG chain 2: DIQMTQSPSSLSASVGDRVTITCTSSQSLFNVRSQKNYLAWYQQKPGKAPKLLIYWASTRESGVPSRFSGSGSGTDFTLTISSLQPEDFATYYCKQSYDLFTFGGGTKVEIKGGGGSGGGGEVQLVESGGGLVQPGGSLRLSCAASGFTFSSYWMHWVRQAPGKGLEWIGEIKPSNELTNVHEKFKDRFTISVDKAKNSAYLQMNSLRAEDTAVYYCTRTITTTEGYWFFDVWGQGTLVTVSSGCPPCPAPEAAGAPSVFLFPPKPKDTLMISRTPEVTCVVVDVSHEDPEVKFNWYVDGVEVHNAKTKPREEQYNSTYRVVSVLTVLHQDWLNGKEYKCKVSNKALPAPIEKTISKAKGQPREPQVYTLPPCREEMTKNQVSLSCAVKGFYPSDIAVEWESNGQPENNYKTTPPVLDSDGSFFLVSKLTVDKSRWQQGNVFSCSVMHEALHNHYTQKSLSLSPG", "values": [
      {"measurement": "DELFIA TRF", "setting": "GUCY2C_ECD Peptide 74", "value": 100},
      {"measurement": "DELFIA TRF", "setting": "GUCY2C_ECD Peptide 9", "value": 145},
      {"measurement": "DELFIA TRF", "setting": "GUCY2C_ECD Peptide 24", "value": 119},
      {"measurement": "DELFIA TRF", "setting": "GUCY2C_ECD Peptide 21", "value": 81},
      {"measurement": "DELFIA TRF", "setting": "GUCY2C_ECD Peptide 3", "value": 97.8},
      {"measurement": "DELFIA TRF", "setting": "GUCY2C_ECD Peptide 38", "value": 110},
      {"measurement": "DELFIA TRF", "setting": "GUCY2C_ECD Peptide 18", "value": 126},
      {"measurement": "DELFIA TRF", "setting": "GUCY2C_ECD Peptide 81", "value": 109},
      {"measurement": "DELFIA TRF", "setting": "GUCY2C_ECD Peptide 88", "value": 120},
      {"measurement": "DELFIA TRF", "setting": "GUCY2C_ECD Peptide 31", "value": 90.2},
      {"measurement": "DELFIA TRF", "setting": "GUCY2C_ECD Peptide 85", "value": 163},
      {"measurement": "DELFIA TRF", "setting": "GUCY2C_ECD Peptide 76", "value": 102},
      {"measurement": "DELFIA TRF", "setting": "GUCY2C_ECD Peptide 60", "value": 150},
      {"measurement": "DELFIA TRF", "setting": "GUCY2C_ECD Peptide 56", "value": 81},
      {"measurement": "DELFIA TRF", "setting": "GUCY2C_ECD Peptide 71", "value": 105},
      {"measurement": "DELFIA TRF", "setting": "GUCY2C_ECD Peptide 23", "value": 96.2},
      {"measurement": "DELFIA TRF", "setting": "GUCY2C_ECD Peptide 30", "value": 125},
      {"measurement": "DELFIA TRF", "setting": "GUCY2C_ECD Peptide 84", "value": 133},
      {"measurement": "DELFIA TRF", "setting": "GUCY2C_ECD Peptide 34", "value": 99},
      {"measurement": "DELFIA TRF", "setting": "GUCY2C_ECD Peptide 26", "value": 104},
      {"measurement": "DELFIA TRF", "setting": "GUCY2C_ECD Peptide 54", "value": 112},
      {"measurement": "DELFIA TRF", "setting": "GUCY2C_ECD Peptide 8", "value": 148},
      {"measurement": "DELFIA TRF", "setting": "GUCY2C_ECD Peptide 61", "value": 126},
      {"measurement": "DELFIA TRF", "setting": "GUCY2C_ECD Peptide 4", "value": 125},
      {"measurement": "DELFIA TRF", "setting": "GUCY2C_ECD Peptide 49", "value": 129},
      {"measurement": "DELFIA TRF", "setting": "GUCY2C_ECD Peptide 48", "value": 148},
      {"measurement": "DELFIA TRF", "setting": "GUCY2C_ECD Peptide 66", "value": 114},
      {"measurement": "DELFIA TRF", "setting": "GUCY2C_ECD Peptide 89", "value": 115},
      {"measurement": "DELFIA TRF", "setting": "GUCY2C_ECD Peptide 33", "value": 87.5},
      {"measurement": "DELFIA TRF", "setting": "GUCY2C_ECD Peptide 73", "value": 116},
      {"measurement": "DELFIA TRF", "setting": "GUCY2C_ECD Peptide 69", "value": 100},
      {"measurement": "DELFIA TRF", "setting": "GUCY2C_ECD Peptide 5", "value": 109},
      {"measurement": "DELFIA TRF", "setting": "GUCY2C_ECD Peptide 67", "value": 93.2},
      {"measurement": "DELFIA TRF", "setting": "GUCY2C_ECD Peptide 28", "value": 96.8},
      {"measurement": "DELFIA TRF", "setting": "GUCY2C_ECD Peptide 87", "value": 102},
      {"measurement": "DELFIA TRF", "setting": "GUCY2C_ECD Peptide 80", "value": 1470},
      {"measurement": "DELFIA TRF", "setting": "GUCY2C_ECD Peptide 37", "value": 107}
    ]}
  ]
}
